{"source": "paper PMC2792886", "origin": "cited, not measured here", "biological_target": "holoBirA (Escherichia coli) (UniProt P06709)", "data": [{"substance": "holoBirA (from UniProt P06709)", "values": [{"measurement": "Kd", "result": 10, "unit": "µM"}]}]}
